From patent US20240034778A1 (REGENTS OF THE UNIVERSITY OF MICHIGAN, published 2024)
Numbering of substitutions follows the chain as printed. One block for each binder: values may come before it.

Tests used:
[1] = molecular target: T1, Aβ fibrils (fibrils of Aβ1-42) (UniProt P05067 672-713); test: flow cytometry, antibody on Aβ fibril-coated streptavidin beads
T1 construct: domain: Aβ1-42; Fibrillar (aggregated) state of synthetic Aβ1-42; For flow cytometry the fibrils were doped with 1% biotinylated Aβ1-42 and held on streptavidin Dynabeads; for dot blots unlabeled fibrils were spotted on nitrocellulose; also called Aβ42 fibrils; fibrillar Aβ
Protocol: (§1) For affinity analysis, the binding of antibodies to Aβ fibrils was evaluated using streptavidin dynabeads and flow cytometry. Beads were immobilized with 1% biotinylated fibrils as described above. The fibril-coated beads were washed twice with PBSB and then blocked with 10% milk in PBS at room temperature for 1 hour with end-over-end mixing. Afterward, the beads were washed 2× with PBSB.
(§2) Antibodies were thawed and centrifuged at 21000× g for 5 minutes to remove aggregates. The supernatant was transferred to a new tube and the antibody concentration was determined by measuring absorbance at 280 nm. Antibody dilutions were made in PBSB. Fibril-coated beads (1.25×10⁵ beads per evaluated antibody concentration) were incubated with antibodies in 96 well plates (Greiner, 650261) in 1% milk for 3 hours at 25° C.(300 RPM). Next, the plates were centrifuged at 3500 RPM for 5 minutes, the supernatants were discarded, and the beads were washed once with ice-cold PBSB. After washing, the plates were spun down again and the beads with resuspended with 300× diluted goat anti-human Fc AF647 (Jackson Immunoresearch, 109-605-098) on ice for 4-5 minutes. […] Two independent repeats were performed with different batches of beads coated with Aβ fibrils.

[2] = molecular target: T1, Aβ fibrils (fibrils of Aβ1-42); test: immunodot blot, antibody at 10 nM, 30 second exposure
Protocol: (§3) FIG. 6A includes images of an immunoblot analysis of the conformational and sequence specificity of the selected Aβ antibodies. Disaggregated Aβ and fibrillar Aβ, IAPP, and αSyn were immobilized on nitrocellulose membranes and probed with anti-Aβ antibodies (10 nM in PBS with 1% milk). The blots were imaged after relatively short exposure times (30 seconds) except for AF1 (45 minute exposure). A loading control blot was detected using colloidal silver stain. The experiments were repeated three times and a representative example is shown. FIG. 6B includes images of immunoblot analysis of the conformational and sequence specificity of the selected Aβ antibodies using a long exposure time. The blots were processed and imaged as described in FIG. 6A except that all of the blots were processed after a relatively long exposure time (45 minutes). A loading control blot was detected using colloidal silver stain. The experiments were repeated three times and a representative example is shown.
(§4) The conformational specificity of the selected antibodies was then assessed using immunodot blots (FIG. 6A).

[3] = molecular target: T2, disaggregated Aβ (Aβ1-42) (UniProt P05067 672-713); test: immunodot blot, antibody at 10 nM, 45 minute exposure
T2 construct: domain: Aβ1-42; Same peptide as the fibrils, in the disaggregated (soluble) state; also called soluble Aβ; Aβ monomer
Protocol: as §3, §4

[4] = molecular target: T1, Aβ fibrils (fibrils of Aβ1-42); test: flow cytometry, antibody on Aβ fibril-coated streptavidin beads (fibril batch of FIG. 5)
Protocol: as §1, §2

[5] = molecular target: T1, Aβ fibrils (fibrils of Aβ1-42); test: flow cytometry, antibody on Aβ fibril-coated streptavidin beads (fibril batch of FIG. 10)
Protocol: as §1, §2

EC50 [1]: 9 nM
B1: crenezumab (antibody, V domains shown)
VH: EVQLVESGGGLVQPGGSLRLSCAASGFTFSSYGMSWVRQAPGKGLELVASINSNGGSTYYPDSVKGRFTISRDNAKNSLYLQMNSLRAEDTAVYYCASGDYWGQGTTVTVSS
VL: DIVMTQSPLSLPVTPGEPASISCRSSQSLVYSNGDTYLHWYLQKPGQSPQLLIYKVSNRFSGVPDRFSGSGSGTDFTLKISRVEAEDVGVYYCSQSTHVPWTFGQGTKVEIKR

EC50 [4]: 8 nM
EC50 [5]: 18 nM
B3: Clone 97 (Fc fusion)
VH: EVQLVESGGGLVQPGGSLRLSCAASGFNIKDTYIHWVRQAPGKGLEWVARIYPASGATRYADSVKGRFTISADTSKNTAYLQMNSLRAEDTAVYYCARDGYDGSYFVGYDYNDFYDYWGQGTLVTVSS
VL: DIQMTQSPSSLSASVGDRVTITCRASQNVAYAVTWYQQKPGKAPKLLIYSASFLYSGVPSRFSGSRSGTDFTLTISSLQPEDFATYYCQQHSTYPPTFGQGTKVEIK
notes: also called parental antibody (clone 97); 97 WT

Further lines, the binder ahead of its results:

B2: Clone 101 (Fc fusion)
VH: B3 VH with A57S, D62G
VL: B3 VL with A30Y, Y31S
binding result [2]: binds
binding result [3]: binds

B4: Clone 93 (Fc fusion)
VH: B3 VH with A54S, S55N, A57Y, D62G
VL: B3 VL with A30Y, Y31N, S92N
binding result [2]: binds
binding result [3]: binds
